Laboratory results published in publication PMC6418199 (Scientific Reports, 2019).

What was measured:
[1] = target: hemagglutinin of H1N1 clinical isolate A/Taiwan/80813/2013 (genotype A/California/07/2009) (Influenza A virus A/Taiwan/80813/2013 …, UniProt C3W5X2, strain); assay: cell-based or functional assay
[2] = target: hemagglutinin of H1N1 clinical isolate 2013-INF-152 (genotype A/California/07/2009) (Influenza A virus H1N1, clinical …, UniProt C3W5X2, strain); assay: cell-based or functional assay
[3] = target: hemagglutinin of H1N1 clinical isolate 2013-INF-153 (genotype A/California/07/2009) (Influenza A virus H1N1, clinical …, UniProt C3W5X2, strain); assay: cell-based or functional assay
[4] = target: hemagglutinin of H1N1 clinical isolate 2014-INF-36 (genotype A/California/07/2009) (Influenza A virus H1N1, clinical …, UniProt C3W5X2, strain); assay: cell-based or functional assay
[5] = target: hemagglutinin of H1N1 clinical isolate 2014-INF-37 (genotype A/California/07/2009) (Influenza A virus H1N1, clinical …, UniProt C3W5X2, strain); assay: cell-based or functional assay
[6] = target: HA1 domain (residues 63-290) of hemagglutinin from A/California/07/2009 (H1N1) (Influenza A virus …, UniProt C3W5X2); assay: SPR; […], single-cycle kinetics, 25 °C; […]; 10 mM HEPES pH 7.4, 150 mM NaCl; conditions: both partners purified

B1: 32D6 human monoclonal antibody (antibody, V domains shown)
VH: QVQLQESGPGLVKPSETLSLTCTVSGGSVNTGSYYWSWIRQPPGKGLEWIAYSSVSGTSNYNPSLKSRVTLTVDTSKNQFSLSVRSVTAADTAVYFCARLNYDILTGYYFFDFWGQGTLVIVSS
VL: QVELTQSPSASASLGTSVKLTCTLSSGHSTYAIAWHQQRPGKGPRYLMNLSSGGRHTRGDGIPDRFSGSSSGADRYLIISSLQSEDEADYYCQTWDAGMVFGGGTKLTVL
- Neutralization EC50 (infection of MDCK cells, high-content image system) [1]: 0.036 µg/mL
- Neutralization EC50 (infection of MDCK cells, high-content image system) [2]: 0.014 µg/mL
- Neutralization EC50 (infection of MDCK cells, high-content image system) [3]: 0.005 µg/mL
- Neutralization EC50 (infection of MDCK cells, high-content image system) [4]: 0.011 µg/mL
- Neutralization EC50 (infection of MDCK cells, high-content image system) [5]: 0.012 µg/mL

B2: 32D6-Fab (Fab, V domains shown)
VH: B1 VH
VL: B1 VL
notes: also called Fab of 32D6; His-tagged Fab of 32D6 (with the CH1 domain); source: Expi293F cells, purified (HisTrap excel column)
- Kd [6]: 353 pM
- koff [6]: 9.12e-05 s⁻¹
- kon [6]: 258000 M⁻¹ s⁻¹
